Measurements taken from patent US10407503B2, “Fully human antibodies and fragments recognizing human c-Met” (THE REGENTS OF THE UNIVERSITY OF CALIFORNIA, priority 2012, dated 2019).
“Also recorded” adds a separate entry of the source.

B1: F1 ScFv antibody (phage-displayed) (scFv)
scFv: QVQLVQSGAEVKKPGASVKVSCKASGYTFTDYYMHWVRQAPGEGLEWMGWMNPNSGGTNYAQKFQGRVTMTRDTSISTAYMELSRLRSDDTAVYYCARSHYWDSWSPGTLVTVSSGGGGGSGGGGSGGGGSSALTQPASVSGSPGQSITISCTGTSGDVGGYNYVSWYQQHPGKAPKLMIYDVSNRPSGVSNRFSGSKSGNTASLTISGLQAEDEADYYCTSYAGSRNLVFGGGTKLTVLG
notes: The fusion to the phage coat protein is not described
B2: H5 cys-diabody (other)
chain: QVQLQESGGGLVQPGGSLRLSCAASGFTFSNYAMSWVRQAPGKGLEWVSAISGSGGSTYYADSVKGRFTISRDNSKNTLYLQMNSLRAEDTAVYYCAKDRFRAAAYWGQGTLVTVSSGGGGGSQSVLTQPPSVSAAPGQKVTISCTGSSSNIGAGYDVHWYQQLPGTAPKLLIYGNSNRPSGVPDRFSGSKSGTSASLAISGLQSEDEADYYCAAWDDILNGEIFGGGTKVTVLGAAAEQKLISEEDLNGAAHHHHHHC
notes: Expressed in E. coli and purified through the His tag; also called H5 diabody
B3: H5 cys-diabody: human anti-c-Met cys-diabody comprising SEQ ID NO:24 (protein)
chain: B2 chain
modifications: H5 cys-diabody sequence
B4: C2 cys-diabody (other)
chain: QVQLQESGGGLVQPGGSLRLSCAASGFTFSSYAMSWVRQAPGKGLEWVSAISGSGGSTYYADSVKGRFTISRDNSKNTLYLQMNSLRAEDTAVYYCASQHVGEQSRYFDYWGQGTLVTVSSGGGGGSDIVMTQSPSSLSASIGDRVTITCRASHSISSYVNWYQKKPGKAPNLLIYAASYLPRGVPSRFSGSGLGTDFTLTISNLQPEDFATYYCQESYSTPYSFGQGTKVDIKRAAAEQKLISEEDLNGAAHHHHHHC
notes: Expressed in E. coli and purified through the His tag; also called C2 diabody
B5: C2 cys-diabody: human anti-c-Met cys-diabody comprising SEQ ID NO:18 (protein)
chain: B4 chain
modifications: C2 cys-diabody sequence

Assays:
[1] = target: T1, c-MET on the surface of Hcc827 or Hcc827-GR6 cells (human, UniProt P08581 25-1390); test: phage flow cytometry on Hcc827 cells, bound phage detected with FITC anti-M13 antibody
T1 construct: whole, on cells; The cells express the receptor endogenously, and MET is amplified in Hcc827-GR6; also called cell surface MET
Protocol: For phage antibodies, flow cytometry was used to confirm their binding to c-MET expressing cells. Bacteria culture containing phage was concentrated 30 times into PBS according to published method (Antibody Engineering Methods and Protocols, Benny K. C. Lo). $2 \sim 5 \times 10^5$ c-MET positive Hcc827 or Hcc827-GR6 cells (Engelman et. al, Science, 2007) were incubated with 100 ul concentrated phage and 30 ul 4% milk-PBS on ice for 1 hour. Cells were then washed using flow buffer (PBS, 1% FBS, 2 mM EDTA), and the binding phage antibodies were detected by FITC conjugated anti-M13 monoclonal antibody (Santa Cruz Biotechnology, Cat# sc-53005 Fitc).

[2] = target: T2, mouse MET-hIgG Fc fusion protein (Sino Biological Inc.) (mouse; human, UniProt P16056 25-931, limits assumed); test: capture ELISA: cys-diabody coated on the plate, mouse MET-hIgG Fc applied, detected with alkaline phosphatase anti-human IgG
T2 construct: Bought protein; also called mouse MET protein; MET-hFc
Protocol: 1 µg of purified anti-MET cys-diabodies in 100 µL PBS were used to coat each well at 4 degree overnight. Anti-EpCAM cys-diabody or 2% milk-PBS were used for negative controls. The overnight coated plate was then washed with PBS and blocked with 2% milk-PBS at 37 degree for 2 hours. The plate was then washed with PBS before adding 0.1 µg human or mouse MET-hIgG Fc fusion protein (purchased from Sino Biological Inc.) in 100 µL, 2% milk-PBS to each well. The plate was incubated at room temperature for 1.5 hours, and then washed with PBS-Tween and PBS. The captured human or mouse MET-hIgG Fc were detected with alkaline phosphatase conjugated goat anti-human IgG.
C2, H2 and H5 cys-diabodies were used to coat 96-well ELISA plate to capture human or mouse MET-hIgG Fc fusion protein. The human IgG Fc on the fusion protein was detected with alkaline phosphatase conjugated goat anti-human IgG. The results in FIG. 4 show H2 cys-diabody can bind to both human and mouse MET protein, while C2 and H5 cys-diabodies show minimal cross reactivity to the mouse MET. Anti-EpCAM H9 cys-diabody or 2% milk-PBS were used as negative controls.

[3] = target: T1, c-MET on the surface of Hcc827 or …; test: flow cytometry binding curve on cells (the sheet does not name them; paragraph 217: Hcc827 GR6 cell line)
Protocol: (§1) The affinities of the cys-diabodies were evaluated by flow cytometry. Serial diluted cys-diabodies were incubated with Hcc827-GR6 cells at 4 degrees for 2 hours. The cys-diabodies were detected with 1/100 mouse anti-c-Myc antibody (Sigma, Cat# M4439) and stained with 1/100 PE or FITC conjugated goat anti mouse IgG polyclonal antibody (Jackson ImmunoResearch) in flow buffer.
(§2) The affinity of these 3 cys-diabodies were evaluated by flow cytometry. The concentrations of the purified proteins were determined by their A280, measured with Nanodrop 2000 (Thermal Scientific), and their calculated extinction coefficient (ProtParam tool, expasy.org). The binding curve was fitted with one-site total binding model by GraphPad Prism.

[4] = target: T1, c-MET on the surface of Hcc827 or …; test: flow cytometry on Hcc827-GR6 cells, one-site total binding fit
Protocol: as §1, §2

[5] = test system: Hcc827-GR6 cells; test: MTS cell growth assay, gefitinib resistant Hcc827-GR6 cells; assay type: cell-based; conditions: 3 days, with or without 1 μM gefitinib, MET amplified
Protocol: (§3) These diabodies also show therapeutic effects on resistant cells with MET amplification. […] The diabodies were also applied to the resistant cell line GR6 with or without 1 μM gefitinib.
(§4) Cell growth and inhibition were evaluated by MTS assay. The MTS assay was based on the ability of live cells to convert 3-(4,5-dimethylthiazol-2-yl)-5-(3-carboxymethoxyphenyl)-2-(4-sulfophenyl)-2H-tetrazolium (MTS) to formazan. The quantity of formazan product was measured by 500 nm absorbance, which is proportional to the number of living cells in culture. The assay was performed with the CellTiter96 AQueous Assay Kit from Promega (Cat# G5421), according to the recommended protocol. 2×10^4 cells were seeded in each well of the 96-well plates and treated with different combination of antibodies and drugs for 3 days before the MTS assay. Each combination of cell line and drug and antibody treatment was set up in at least 4 replicate wells. And the results were normalized to the cells treated with media only.
(§5) Different cell lines were treated with C2, H2 or H5 cys-diabodies at different concentrations with or without 1 micromolar of gefitinib for 3 days, and then the cell growth was evaluated with MTS assay. […] All three cys-diabodies show no effects on the parental Hcc827 cells without gefitinib.
These diabodies also show therapeutic effects on resistant cells with MET amplification. The parental cell line, Hcc827, was treated with the diabodies for 3 days, and the diabodies show no effects on the growth of the parental line at all.

[6] = target: T3, human MET protein (Homo sapiens, UniProt P08581); test: Anti-MET ELISA, human MET-hIgG Fc captured by coated cys-diabodies; assay type: binding; conditions: coated cys-diabody captures human MET-hFc
T3 construct: purchased Sino Biological Inc
Protocol: (§6) Three rounds of selections on human MET protein were performed which were successfully reformatted and purified 3 cys-diabodies. C2, H2 and H5 cys-diabodies were tested for cross-reactivity to mouse MET protein. Different cys-diabodies were coated to 96-well plate (milk or anti-EpCAM cys-diabody was used as negative control). Either mouse or human MET protein was applied to the coated cys-diabodies. Then the MET-hFc proteins were detected by anti-human Fc antibody.
(§7) 1 μg of purified anti-MET cys-diabodies in […], PBS were used to coat each well at 4 degree overnight. Anti-EpCAM cys-diabody or 2% milk-PBS were used for negative controls. The overnight coated plate was then washed with PBS and blocked with 2% milk-PBS at 37 degree for 2 hours. […] The captured human or mouse MET-hIgG Fc were detected with alkaline phosphatase conjugated goat anti-human IgG.
(§8) C2, H2 and H5 cys-diabodies were used to coat 96-well ELISA plate to capture human or mouse MET-hIgG Fc fusion protein. The human IgG Fc on the fusion protein was detected with alkaline phosphatase conjugated goat anti-human IgG. […]
(§9) Three rounds of selections on human MET protein were performed, and three cys-diabodies were reformatted and purified (the C2, H2 and H5 cys-diabodies). […] Then the MET-hFc proteins were detected by anti-human Fc antibody.

[7] = target: T4, mouse MET protein (Mus musculus, UniProt P16056); test: Anti-MET ELISA, mouse MET-hIgG Fc captured by coated cys-diabodies (cross reactivity); assay type: binding; conditions: coated cys-diabody captures mouse MET-hFc
T4 construct: purchased Sino Biological Inc
Protocol: as §6, §7, §8, §9

[8] = test system: Hcc827 cells; test: MTS cell growth assay, parental Hcc827 cells; assay type: cell-based; conditions: 3 days, with 1 micromolar gefitinib
Protocol: as §3, §4, §5
These diabodies also show therapeutic effects on resistant cells with MET amplification. […]

T1 sequence (P08581 25-1390): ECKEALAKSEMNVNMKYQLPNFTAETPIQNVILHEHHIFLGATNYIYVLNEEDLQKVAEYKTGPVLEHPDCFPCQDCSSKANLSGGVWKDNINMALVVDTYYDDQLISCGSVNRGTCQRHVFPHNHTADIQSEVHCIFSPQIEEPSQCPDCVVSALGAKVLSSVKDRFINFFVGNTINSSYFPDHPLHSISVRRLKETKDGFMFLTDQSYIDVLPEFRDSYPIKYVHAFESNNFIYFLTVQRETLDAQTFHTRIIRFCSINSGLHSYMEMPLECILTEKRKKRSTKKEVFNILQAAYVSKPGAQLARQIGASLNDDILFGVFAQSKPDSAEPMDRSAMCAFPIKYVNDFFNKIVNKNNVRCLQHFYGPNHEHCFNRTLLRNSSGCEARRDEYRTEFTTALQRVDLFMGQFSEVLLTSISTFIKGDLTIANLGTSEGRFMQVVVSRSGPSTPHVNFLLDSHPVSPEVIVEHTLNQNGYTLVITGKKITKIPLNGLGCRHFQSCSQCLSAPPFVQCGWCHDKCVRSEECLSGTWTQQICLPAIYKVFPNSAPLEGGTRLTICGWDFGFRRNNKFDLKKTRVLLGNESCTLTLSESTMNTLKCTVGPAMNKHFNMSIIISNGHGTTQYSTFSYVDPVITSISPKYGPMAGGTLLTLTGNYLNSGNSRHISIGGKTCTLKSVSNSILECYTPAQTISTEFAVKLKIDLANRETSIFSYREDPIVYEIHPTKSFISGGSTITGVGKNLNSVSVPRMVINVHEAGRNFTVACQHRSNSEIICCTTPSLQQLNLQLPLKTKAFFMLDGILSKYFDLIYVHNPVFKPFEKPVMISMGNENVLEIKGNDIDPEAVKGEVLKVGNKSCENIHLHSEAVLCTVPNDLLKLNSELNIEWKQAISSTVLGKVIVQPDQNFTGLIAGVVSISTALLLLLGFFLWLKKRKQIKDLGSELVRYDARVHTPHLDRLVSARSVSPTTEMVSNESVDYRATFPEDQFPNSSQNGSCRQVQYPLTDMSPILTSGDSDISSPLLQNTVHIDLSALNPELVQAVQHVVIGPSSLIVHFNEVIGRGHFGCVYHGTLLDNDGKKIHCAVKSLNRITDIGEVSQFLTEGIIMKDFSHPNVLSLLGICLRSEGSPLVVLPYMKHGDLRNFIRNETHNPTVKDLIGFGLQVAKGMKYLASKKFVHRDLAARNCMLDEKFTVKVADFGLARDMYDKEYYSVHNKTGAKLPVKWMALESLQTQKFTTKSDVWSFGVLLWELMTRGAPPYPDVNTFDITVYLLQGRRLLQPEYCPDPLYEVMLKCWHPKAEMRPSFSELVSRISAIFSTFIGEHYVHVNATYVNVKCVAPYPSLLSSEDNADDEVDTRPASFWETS
T4 sequence (P16056 with tags, fused parts or gaps limits assumed): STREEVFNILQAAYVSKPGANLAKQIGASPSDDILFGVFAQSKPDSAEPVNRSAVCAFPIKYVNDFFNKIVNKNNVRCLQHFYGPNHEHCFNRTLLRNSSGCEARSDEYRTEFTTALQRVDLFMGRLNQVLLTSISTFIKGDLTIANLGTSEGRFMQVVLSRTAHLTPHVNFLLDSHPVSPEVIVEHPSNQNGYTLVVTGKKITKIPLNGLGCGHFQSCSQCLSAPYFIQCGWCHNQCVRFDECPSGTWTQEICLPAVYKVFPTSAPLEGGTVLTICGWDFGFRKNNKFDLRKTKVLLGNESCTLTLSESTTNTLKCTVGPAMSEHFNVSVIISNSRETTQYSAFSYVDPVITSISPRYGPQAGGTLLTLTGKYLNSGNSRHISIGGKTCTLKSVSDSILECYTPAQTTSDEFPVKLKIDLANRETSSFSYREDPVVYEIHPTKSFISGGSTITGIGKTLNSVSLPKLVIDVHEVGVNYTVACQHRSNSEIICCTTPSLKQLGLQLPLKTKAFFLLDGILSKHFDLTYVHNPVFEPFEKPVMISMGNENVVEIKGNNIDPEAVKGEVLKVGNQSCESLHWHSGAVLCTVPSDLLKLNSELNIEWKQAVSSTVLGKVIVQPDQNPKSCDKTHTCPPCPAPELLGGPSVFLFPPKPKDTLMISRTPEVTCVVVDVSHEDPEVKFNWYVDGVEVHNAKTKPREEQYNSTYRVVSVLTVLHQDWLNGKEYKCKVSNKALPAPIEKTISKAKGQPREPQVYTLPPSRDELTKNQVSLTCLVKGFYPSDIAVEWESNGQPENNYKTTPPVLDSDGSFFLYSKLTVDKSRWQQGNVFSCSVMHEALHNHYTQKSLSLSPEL
T4 sequence (P16056 25-306 limits assumed): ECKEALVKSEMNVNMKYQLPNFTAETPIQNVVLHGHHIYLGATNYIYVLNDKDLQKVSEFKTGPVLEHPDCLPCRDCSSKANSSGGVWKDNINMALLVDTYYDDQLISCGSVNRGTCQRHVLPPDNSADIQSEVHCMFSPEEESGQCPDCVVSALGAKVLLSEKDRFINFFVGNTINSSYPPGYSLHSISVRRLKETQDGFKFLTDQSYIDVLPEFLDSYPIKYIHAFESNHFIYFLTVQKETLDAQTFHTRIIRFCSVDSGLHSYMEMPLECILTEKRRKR
T2 sequence (P16056 25-931 limits assumed): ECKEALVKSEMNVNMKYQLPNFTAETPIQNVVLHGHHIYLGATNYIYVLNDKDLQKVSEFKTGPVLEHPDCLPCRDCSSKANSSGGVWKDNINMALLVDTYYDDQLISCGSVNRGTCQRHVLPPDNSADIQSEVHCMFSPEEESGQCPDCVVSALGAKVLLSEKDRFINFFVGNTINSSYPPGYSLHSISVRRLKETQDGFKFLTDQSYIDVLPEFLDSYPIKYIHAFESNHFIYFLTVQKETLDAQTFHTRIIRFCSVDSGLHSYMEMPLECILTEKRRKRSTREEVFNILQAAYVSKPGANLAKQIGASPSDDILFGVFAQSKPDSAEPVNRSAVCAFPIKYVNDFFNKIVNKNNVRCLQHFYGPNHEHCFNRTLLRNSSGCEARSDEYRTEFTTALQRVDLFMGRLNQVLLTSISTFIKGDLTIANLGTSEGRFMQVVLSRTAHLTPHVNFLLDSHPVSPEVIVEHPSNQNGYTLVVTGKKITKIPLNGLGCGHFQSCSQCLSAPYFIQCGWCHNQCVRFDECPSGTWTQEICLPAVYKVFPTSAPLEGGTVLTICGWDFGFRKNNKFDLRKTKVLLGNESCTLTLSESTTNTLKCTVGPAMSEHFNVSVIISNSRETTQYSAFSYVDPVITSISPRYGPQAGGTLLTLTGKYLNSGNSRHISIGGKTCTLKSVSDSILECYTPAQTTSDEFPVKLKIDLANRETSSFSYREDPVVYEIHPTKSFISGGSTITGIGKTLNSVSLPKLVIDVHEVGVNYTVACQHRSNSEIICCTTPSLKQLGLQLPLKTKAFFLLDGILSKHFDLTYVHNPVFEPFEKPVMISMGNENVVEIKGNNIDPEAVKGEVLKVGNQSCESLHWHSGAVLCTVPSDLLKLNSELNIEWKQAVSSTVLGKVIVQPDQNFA
T3 sequence (P08581 with tags, fused parts or gaps limits assumed): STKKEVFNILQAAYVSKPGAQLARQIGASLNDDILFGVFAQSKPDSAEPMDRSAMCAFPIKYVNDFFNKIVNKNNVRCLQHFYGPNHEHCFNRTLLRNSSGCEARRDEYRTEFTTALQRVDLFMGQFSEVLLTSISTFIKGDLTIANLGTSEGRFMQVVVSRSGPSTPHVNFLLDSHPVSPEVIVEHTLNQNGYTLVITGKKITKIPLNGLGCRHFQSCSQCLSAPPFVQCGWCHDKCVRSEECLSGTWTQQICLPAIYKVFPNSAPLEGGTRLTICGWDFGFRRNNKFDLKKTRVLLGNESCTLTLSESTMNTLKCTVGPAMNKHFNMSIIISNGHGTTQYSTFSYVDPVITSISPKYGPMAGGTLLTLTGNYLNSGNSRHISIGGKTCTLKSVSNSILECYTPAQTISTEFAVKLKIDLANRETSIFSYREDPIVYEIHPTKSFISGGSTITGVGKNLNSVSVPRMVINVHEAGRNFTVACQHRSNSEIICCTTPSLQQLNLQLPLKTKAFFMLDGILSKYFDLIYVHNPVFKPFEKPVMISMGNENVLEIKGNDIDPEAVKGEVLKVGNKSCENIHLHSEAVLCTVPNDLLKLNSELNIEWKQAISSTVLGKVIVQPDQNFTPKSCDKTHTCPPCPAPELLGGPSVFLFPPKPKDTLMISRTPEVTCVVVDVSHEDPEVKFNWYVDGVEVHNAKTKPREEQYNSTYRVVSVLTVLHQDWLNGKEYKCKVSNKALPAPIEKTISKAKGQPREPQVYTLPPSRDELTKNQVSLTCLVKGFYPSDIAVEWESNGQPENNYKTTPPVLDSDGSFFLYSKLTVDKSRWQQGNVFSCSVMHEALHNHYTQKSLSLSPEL
T3 sequence (P08581 25-307 limits assumed): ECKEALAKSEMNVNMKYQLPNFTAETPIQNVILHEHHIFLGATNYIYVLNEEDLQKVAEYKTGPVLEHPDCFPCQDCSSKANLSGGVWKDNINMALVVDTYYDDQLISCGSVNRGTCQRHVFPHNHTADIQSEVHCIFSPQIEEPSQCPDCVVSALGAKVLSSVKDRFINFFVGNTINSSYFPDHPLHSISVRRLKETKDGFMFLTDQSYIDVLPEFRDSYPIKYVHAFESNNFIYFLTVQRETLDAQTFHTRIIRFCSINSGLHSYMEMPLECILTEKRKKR

Molecule	binding result [2]	Kd [3]	Kd [4]	binding to human MET protein [6]	cross reactivity to mouse MET protein [7]	also measured
B1	–	–	–	–	–	binding result [1]: binds
B2	no binding	4.7 nM	4.6 nM	–	–	–
B3	–	–	–	bind to only human MET	bind to only human MET; also recorded: minimal cross reactivity to the mouse MET	inhibition of growth of resistant Hcc827-GR6 cells [5]: inhibition of the resistant cells at higher concentration; inhibition of growth of resistant Hcc827-GR6 cells ([5]; listed as H5 diabody): some inhibition at high concentrations; also recorded: inhibition only at high concentrations
B4	no binding	2 nM	2.4 nM	–	–	–
B5	–	–	–	bind to only human MET	bind to only human MET; also recorded: minimal cross reactivity to the mouse MET	inhibition of growth of resistant Hcc827-GR6 cells ([5]; listed as C2 diabody): some inhibition at high concentrations; also recorded: inhibition only at high concentrations; effect on growth of sensitive Hcc827 cells with gefitinib [8]: protects the sensitive Hcc827 cells from gefitinib inhibition
